± gives the uncertainty stated by the source.

The series in a line: self-splicing fitness, log relative to wild type (ln ratio); higher = more splicing; Tetrahymena group I intron in knt gene, E. coli kanamycin selection, DiMSum; sequences stand for … in CUCUCU…GGAGGGAAAAGUUAUCAGGCAUGCACCUGGUAGCUAGUCUUUAAACCAAUAGAUUGCAUCGGUUUAAAAGGCAAGACCGUCAAAUUGCGGGAAAGGGGUCAACAGCCGUUCAGUACCAAGUCUCAGGGGAAACUUUGAGAUGGCCUUGCAAAGGGUAUGGUAAUAAGCUGACGGACAUGGUCCUAACCACGCAGCCAAGUCCUAAGUCAACAGAUCUUCUGUUGAUAUGGAUGCAGUUCACAGACUAAAUGUCGGUCGGGGAAGAUGUAUUCUUCUCAUAAGAUAUAGUCGGACCUCUCCUUAAUGGGAGCUAGCGGAUGAAGUGAUGCAACACUGGAGCCGCUGGGAACUAAUUUGUAUGCGAAAGUAUAUUGAUUAGUUUUGGAGUACUCGUGGUCG
The method in brief:
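A randomised library covering all eight P1ex-region intron nucleotides was built with the intron in the knt kanamycin-resistance gene on pET-22b(+) and held in E. coli BL21(DE3). Cells were grown overnight at 37°C or 30°C on LB agar, with or without 25 μg/mL kanamycin, plus 100 μg/mL carbenicillin, 50 μM IPTG and 0.2% rhamnose, and pooled colonies were amplicon-sequenced on an Illumina HiSeq 2500. DiMSum fitness is the error-weighted combination of wild-type-normalised replicate fold changes, kanamycin versus none.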

On to CCCGAGCAAUAUUACGUCCG, for which the “self-splicing fitness (ln)” value is -2.11 ± 0.4 (30 °C) and -1.98 ± 0.36 (37 °C). For the sequence CCCGAGCAAUAUUACGUCGU, the “self-splicing fitness (ln)” value (30 °C) was -2.45 ± 0.12 and the “self-splicing fitness (ln)” value (37 °C) is -3.06 ± 0.24. For CCCGAGCAAUAUUACGUUCA, the “self-splicing fitness (ln)” value (30 °C) is -3 ± 0.16 and the “self-splicing fitness (ln)” value (37 °C) was -2.99 ± 0.22. Take CCCUAGCAAUAUUACGACAG: the “self-splicing fitness (ln)” value runs as follows: (30 °C) -2.34 ± 0.13; (37 °C) -3.3 ± 0.29. Turning to CCCUAGCAAUAUUACGACCA, the “self-splicing fitness (ln)” value is, setting by setting: (30 °C) -3.35 ± 0.24; (37 °C) -3.33 ± 0.27. As to CCCUAGCAAUAUUACGAGUU, the “self-splicing fitness (ln)” value is, setting by setting: (30 °C) -2.39 ± 0.14; (37 °C) -3.11 ± 0.2.

As for CCCUAGCAAUAUUACGAUCG, the “self-splicing fitness (ln)” value was -3.91 ± 0.35 (30 °C) and -1.47 ± 0.18 (37 °C).

On to CCCUAGCAAUAUUACGGACA, for which the “self-splicing fitness (ln)” value is -2.94 ± 0.32 (30 °C) and -2.62 ± 0.24 (37 °C). Taken in the same sequence, the figures for CCCUAGCAAUAUUACGGGCC were -3.25 ± 0.19 and -1.74 ± 0.27. Taken in the same sequence, the figures for CCCUAGCAAUAUUACGGGCU were -4.04 ± 0.25 and -2.71 ± 0.18.

For the sequence CCCUAGCAAUAUUACGGUCG, the “self-splicing fitness (ln)” value is -2.02 ± 0.068 (30 °C) and -0.697 ± 0.092 (37 °C). Taken in the same sequence, the figures for CCCUAGCAAUAUUACGUCAG were -3.8 ± 0.18 and -2.91 ± 0.18. For the sequence CCCUAGCAAUAUUACGUCGU, the “self-splicing fitness (ln)” value is, setting by setting: (30 °C) -3.42 ± 0.2; (37 °C) -1.43 ± 0.19. Taken in the same sequence, the figures for CCCUAGCAAUAUUACGUGAU were -2.33 ± 0.076 and -2.27 ± 0.14. As for CCCUAGCAAUAUUACGUGCA, the “self-splicing fitness (ln)” value by setting is: (30 °C) -3.99 ± 0.18; (37 °C) -2.92 ± 0.14. In the same order, the values of CCCUAGCAAUAUUACGUGCU are -2.99 ± 0.17 and -2.58 ± 0.24. Turning to CCCUAGCAAUAUUACGUUCC, the “self-splicing fitness (ln)” value by setting is: (30 °C) -2.3 ± 0.22; (37 °C) -2.11 ± 0.24. Taken in the same sequence, the figures for CCGAAGCAAUAUUACGAAGU were -3.15 ± 0.19 and -2.8 ± 0.29.

In the case of CCGAAGCAAUAUUACGACCU, the “self-splicing fitness (ln)” value was -3.73 ± 0.32 (30 °C) and -2.3 ± 0.36 (37 °C).

Take CCGAAGCAAUAUUACGAGGG: the “self-splicing fitness (ln)” value reads like this: (30 °C) -3 ± 0.18; (37 °C) -1.73 ± 0.22. For CCGAAGCAAUAUUACGAUGU, the “self-splicing fitness (ln)” value (30 °C) is -3.33 ± 0.27 and the “self-splicing fitness (ln)” value (37 °C) was -1.86 ± 0.15. In the same order, the values of CCGAAGCAAUAUUACGCGCG are -1.23 ± 0.11 and 0.0615 ± 0.12. In the same order, the values of CCGAAGCAAUAUUACGGCAA are -3.61 ± 0.38 and -1.98 ± 0.38. Taken in the same sequence, the figures for CCGAAGCAAUAUUACGGCAC were -4.15 ± 0.31 and -2.37 ± 0.33.

As to CCGAAGCAAUAUUACGGCGG, the “self-splicing fitness (ln)” value by setting is: (30 °C) -3.48 ± 0.15; (37 °C) -2.15 ± 0.17.

Regarding CCGAAGCAAUAUUACGGUCA, the “self-splicing fitness (ln)” value (30 °C) is -3.56 ± 0.2 and the “self-splicing fitness (ln)” value (37 °C) was -2.55 ± 0.18. In the same order, the values of CCGAAGCAAUAUUACGUAUC are -2.92 ± 0.24 and -3.03 ± 0.25. Turning to CCGAAGCAAUAUUACGUCGC, the “self-splicing fitness (ln)” value runs as follows: (30 °C) -3.18 ± 0.26; (37 °C) -3.07 ± 0.34. For the sequence CCGAAGCAAUAUUACGUCGG, the “self-splicing fitness (ln)” value is -3.35 ± 0.2 (30 °C) and -2.59 ± 0.31 (37 °C).

With CCGAAGCAAUAUUACGUGAC, the “self-splicing fitness (ln)” value (37 °C) was -1.4 ± 0.2. Consider CCGAAGCAAUAUUACGUGUU, for which the “self-splicing fitness (ln)” value by setting is: (30 °C) -3.93 ± 0.16; (37 °C) -2.89 ± 0.15. For CCGAAGCAAUAUUACGUUGU, the “self-splicing fitness (ln)” value is -4.15 ± 0.32 (30 °C) and -3.37 ± 0.24 (37 °C).

As for CCGCAGCAAUAUUACGACAG, the “self-splicing fitness (ln)” value was -0.485 ± 0.063 (30 °C) and 0.0928 ± 0.088 (37 °C). In the same order, the values of CCGCAGCAAUAUUACGAGGU are -3.73 ± 0.2 and -1.84 ± 0.19. In the same order, the values of CCGCAGCAAUAUUACGAUCC are -3.04 ± 0.19 and -2.71 ± 0.36. Regarding CCGCAGCAAUAUUACGAUGA, the “self-splicing fitness (ln)” value (30 °C) was -3.2 ± 0.38. For CCGCAGCAAUAUUACGAUGC, the “self-splicing fitness (ln)” value by setting is: (30 °C) -4.08 ± 0.28; (37 °C) -2.88 ± 0.23. Consider CCGCAGCAAUAUUACGAUGG, for which the “self-splicing fitness (ln)” value by setting is: (30 °C) -4.91 ± 0.28; (37 °C) -2.52 ± 0.2.

Take CCGCAGCAAUAUUACGCGCG: the “self-splicing fitness (ln)” value (30 °C) was -3.21 ± 0.2 and the “self-splicing fitness (ln)” value (37 °C) was -1.9 ± 0.17. Taken in the same sequence, the figures for CCGCAGCAAUAUUACGCGUU were -3.51 ± 0.14 and -2.29 ± 0.14. Taken in the same sequence, the figures for CCGCAGCAAUAUUACGCUAU were -3.78 ± 0.3 and -3.04 ± 0.25.

For the sequence CCGCAGCAAUAUUACGCUCA, the “self-splicing fitness (ln)” value (37 °C) was -1.28 ± 0.21. For CCGCAGCAAUAUUACGCUGA, where the note is “30 °C”, the “self-splicing fitness (ln)” value was -3.21 ± 0.34.

On to CCGCAGCAAUAUUACGGCCA, for which the “self-splicing fitness (ln)” value by setting is: (30 °C) -4.11 ± 0.31; (37 °C) -2.51 ± 0.26.

For CCGCAGCAAUAUUACGGCGG, the “self-splicing fitness (ln)” value is, setting by setting: (30 °C) -4.17 ± 0.22; (37 °C) -3.33 ± 0.26. For the sequence CCGCAGCAAUAUUACGGGCC, the “self-splicing fitness (ln)” value was -2.9 ± 0.25 (30 °C) and -2.34 ± 0.29 (37 °C). In the same order, the values of CCGCAGCAAUAUUACGGGGA are -3.59 ± 0.15 and -2.35 ± 0.15. In the same order, the values of CCGCAGCAAUAUUACGGUAC are -3.8 ± 0.17 and -2.8 ± 0.2. In the same order, the values of CCGCAGCAAUAUUACGGUAU are -4.73 ± 0.23 and -3.44 ± 0.17. Regarding CCGCAGCAAUAUUACGUACC, the “self-splicing fitness (ln)” value runs as follows: (30 °C) -3.7 ± 0.28; (37 °C) -3.08 ± 0.47. As to CCGCAGCAAUAUUACGUAGG, the “self-splicing fitness (ln)” value by setting is: (30 °C) -2.6 ± 0.068; (37 °C) -2.95 ± 0.13. Taken in the same sequence, the figures for CCGCAGCAAUAUUACGUCGA were -1.06 ± 0.059 and -0.16 ± 0.069. As to CCGCAGCAAUAUUACGUGUU, the “self-splicing fitness (ln)” value (30 °C) was -3.84 ± 0.14 and the “self-splicing fitness (ln)” value (37 °C) was -3.1 ± 0.21. In the same order, the values of CCGGAGCAAUAUUACGAAAU are -3.2 ± 0.27 and -0.842 ± 0.37. Consider CCGGAGCAAUAUUACGAACC, for which, for the setting “37 °C”, the “self-splicing fitness (ln)” value is -1.97 ± 0.41. On to CCGGAGCAAUAUUACGAGAC, for which the “self-splicing fitness (ln)” value (30 °C) was -2.99 ± 0.38.

Regarding CCGGAGCAAUAUUACGAGAU, the “self-splicing fitness (ln)” value is -3.24 ± 0.18 (30 °C) and -3.52 ± 0.35 (37 °C).

As for CCGGAGCAAUAUUACGAGGC, the “self-splicing fitness (ln)” value runs as follows: (30 °C) -1.99 ± 0.34; (37 °C) -2.86 ± 0.38.

As for CCGGAGCAAUAUUACGAUUA, the “self-splicing fitness (ln)” value by setting is: (30 °C) -3.79 ± 0.37; (37 °C) -1.17 ± 0.3. Taken in the same sequence, the figures for CCGGAGCAAUAUUACGCCUG were -2.36 ± 0.24 and -1.8 ± 0.24. Taken in the same sequence, the figures for CCGGAGCAAUAUUACGCGCA were -2.85 ± 0.21 and -2.29 ± 0.22.

CCGGAGCAAUAUUACGCUAA: the “self-splicing fitness (ln)” value (30 °C) was -2.65 ± 0.26 and the “self-splicing fitness (ln)” value (37 °C) is -2.96 ± 0.35. Take CCGGAGCAAUAUUACGCUGA: the “self-splicing fitness (ln)” value (30 °C) is -1.42 ± 0.29 and the “self-splicing fitness (ln)” value (37 °C) was -1.75 ± 0.45. For the sequence CCGGAGCAAUAUUACGGCAA, the “self-splicing fitness (ln)” value is, setting by setting: (30 °C) -1.63 ± 0.22; (37 °C) -2.48 ± 0.31.

For CCGGAGCAAUAUUACGGGAA, the “self-splicing fitness (ln)” value by setting is: (30 °C) -2.09 ± 0.32; (37 °C) -2.13 ± 0.37.

CCGGAGCAAUAUUACGGGGC: the “self-splicing fitness (ln)” value by setting is: (30 °C) -3.78 ± 0.26; (37 °C) -2.55 ± 0.44. On to CCGGAGCAAUAUUACGGGUU, for which the “self-splicing fitness (ln)” value (30 °C) is -3.85 ± 0.39 and the “self-splicing fitness (ln)” value (37 °C) was -2.67 ± 0.37. Regarding CCGGAGCAAUAUUACGGUAU, the “self-splicing fitness (ln)” value is -4.05 ± 0.2 (30 °C) and -3.34 ± 0.22 (37 °C). Taken in the same sequence, the figures for CCGGAGCAAUAUUACGUUUG were -1.54 ± 0.15 and -0.756 ± 0.15. Take CCGUAGCAAUAUUACGAAAG: the “self-splicing fitness (ln)” value (30 °C) is -1.37 ± 0.088 and the “self-splicing fitness (ln)” value (37 °C) is 0.537 ± 0.1. Consider CCGUAGCAAUAUUACGAAUA, for which the “self-splicing fitness (ln)” value (30 °C) was -2.99 ± 0.28.

Regarding CCGUAGCAAUAUUACGCAUG, the “self-splicing fitness (ln)” value runs as follows: (30 °C) -0.123 ± 0.14; (37 °C) -1.09 ± 0.13. With CCGUAGCAAUAUUACGCCCG, the “self-splicing fitness (ln)” value (30 °C) is -0.871 ± 0.15 and the “self-splicing fitness (ln)” value (37 °C) was -0.0634 ± 0.21. In the same order, the values of CCGUAGCAAUAUUACGCGGG are -4.02 ± 0.33 and -3.61 ± 0.39. With CCGUAGCAAUAUUACGCGUG, the “self-splicing fitness (ln)” value (30 °C) was -2.72 ± 0.15 and the “self-splicing fitness (ln)” value (37 °C) was -1.22 ± 0.12. On to CCGUAGCAAUAUUACGCUAA, for which the “self-splicing fitness (ln)” value runs as follows: (30 °C) -3.32 ± 0.35; (37 °C) -1.35 ± 0.36. With CCGUAGCAAUAUUACGGCCA, the “self-splicing fitness (ln)” value (37 °C) was -2.19 ± 0.35.

The values are drawn from the supplement of paper PMC7877785.
